We go through 16 sequences from the nanobody polyreactivity screen of Harvey et al. (2022).

The nature of this data set: yeast display, Sf9 membrane polyspecificity reagent, FACS + sequencing; frameworks hold sequencing errors. The method in brief:
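Synthetic nanobody libraries on Saccharomyces cerevisiae BJ5465 were galactose-induced for 36–48 hours, stained 1 hour at 4 °C with 10% biotinylated, detergent-solubilized Sf9 membrane reagent and enriched on streptavidin microbeads. FACS then separated cells into low and high (top ~1%) gates by anti-HA (expression) and streptavidin (reagent binding) fluorescence. Genes were colony-PCR amplified, MiSeq 2 × 250 sequenced and CDR-length filtered. A clone's polyreactivity label is that of its gate of origin.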
With “QVQLVESGGGLVQAGGSLRLSCAASGSTFVRYAMGWYRQAPGKERELVAAIDGGGTTKYADSVKGRFTISRDNAKNTVYLQMNSLKPEDTSVYYCAADQVWGYDSWGQGTQVTVSS”, the “polyreactivity (PSR sort gate)” value was “low polyreactivity”.

Take “QVQLVESGGGLVQAGGSLRLSCAASGSILGGNAMGWYRKAPGKERELVAAITFSGGGTYYADSVKGRFTISRDNAKNTVYLHMNSLKPEDTAVYYCAADKDGYTYEFDYWGQGTQGTVSS”: the “polyreactivity (PSR sort gate)” value is on record as “low polyreactivity”. Consider “QVQLVESGGGLVQAGGSLRLSCAASGSIFLAYAMGWYRQAPGKERELVATISSGGSTNYADSVKGRFTISRDNAKNTVYLQMNSLKPEDTAVYYCIADYSIPGYYWPYDYWGQGTQVTVSS”, for which the “polyreactivity (PSR sort gate)” value is listed as “low polyreactivity”.

For the sequence “QVQLVESGGGLVQAGGSLRLSCAASGFTFRANGMGWYRQAPGKERELVATITSGGTTNYADSVKGRFTISRDNAKNTVYLQMNSLKPEDTAVYYCAKRFGPAYFRLYDYWGQGTQVTVSS”, the “polyreactivity (PSR sort gate)” value is reported as “low polyreactivity”.

In the case of “QVQLVESGGRLVQAGGSLRLSCAASGFSFGGNVIGWYRQAPGKDREFVAAITDGDGSTYYADSVKGRFTISRDNAKNTVYLQMNSLKPEDTSVYYCAGDVYYADVYPVEYWGQGTQVTVSS”, the “polyreactivity (PSR sort gate)” value is reported as “high polyreactivity”. In the case of “QVQLVESGGGLVQAGGSLRLSCAASGRIFGVNAMGWYRQAPGKERELVAVISSGGSTYYADSVKGRFTISRDNAKKTVYLQMNSLKPEDTEVYYCDRKSYNFIPGNREYDYWGQGTQVTVSS”, the “polyreactivity (PSR sort gate)” value is given as “low polyreactivity”.

With “QVQLVESGGGLVQAGGSLRLSCAASGSTFKKYAMGWYRQAPGKERELVATISKNGGSTYYADSVNGRFTISRDNAKNTVYLQMNSLKPEDTAVYYCATRWWYYRTWYDYWGQGTQVTVSS”, the “polyreactivity (PSR sort gate)” value was “high polyreactivity”. With “QVQLVESGGGLVQAGGSLRLSCAASGFTFINYAMGWYRQAPGKERELVAAISSSSDRTYDADSVKGRFTISRDNAKNTVYLQMNSLKPEDTAVYYCAAYAQKRYYWGQGTQVNVSS”, the “polyreactivity (PSR sort gate)” value was “high polyreactivity”. Regarding “QVQLVESGGGLVQAGGSLRLSCAASGRIFPAYAMGWYRQAPGKERELVASIRRGGITYADSVKGRFTSSRDNAKNTVYLQMNSLKPEDTAVYYCNADKYGPSAYDYWGQGTQVTVSS”, the “polyreactivity (PSR sort gate)” value is “low polyreactivity”. “QVQLVESGGGLVQAGGSLRLSCAASGRIFVYNAMGWYIQAPGKERELVAAISWSTGRTNYADSVKGRFTISRDNAKNTVYLQMNSLKPDDTAVYYCAAEWAWEYYSFWSEYDYWGQGTQVTVSS”: the “polyreactivity (PSR sort gate)” value was “high polyreactivity”.

Take “QVQLVESGGGLVQAGGRLRLSCAASGSTLGYYTMGWYRQAPGKERELVAANTRSGGSTYYADSVKGRFTISRDNAKNTVYLQMNSLKPEDTAVYYCAAAWTRFRIYDYWGQVTQVTVSS”: the “polyreactivity (PSR sort gate)” value is recorded as “high polyreactivity”. “QVQLVESGGGLVQAGGILRLSCAASGSIFPNYAMGWYRQAPGKEREFVAAISSSGGSTYYADYVKGRFTISRENAKNTVYLQMNSLKPDDTAVYYCAAAYVGYYYSRGFDYWGQGTQVTVSS”: the “polyreactivity (PSR sort gate)” value is on record as “high polyreactivity”. Regarding “QVQLVESGGGLVQAGGSLRLSCAASGSTFPKYAMGWYRQAPGKERELVALITSSTGTTYYADSVKGRFTISRDNAKNTVYLQMNSLKPEDTAVYYCNARVRYREWGLYYWGQGTQVTVSS”, the “polyreactivity (PSR sort gate)” value is “high polyreactivity”. As for “QVQLVESGGGLVQAGGSLRLSCAASGSIFAVYAMGWYRQAPGKERELVASITNDGSTYADSVKGRFTISRDNAKNTVYLQLNSLKPEDTAVYYCNADYLTYFTTFDYWGQGTQVTVSS”, the entry is “low polyreactivity”. As for “QVQLVESGGGLVQAGGSLRLSCASSGFTFGWYDMGWYRQAPGKERELVASISWSGSSTYYADSVKGRFTISRDNAKNTVYLQLNSLKPEDTAVYYCNAVSVDYVNWYWYDYWGQGTQVTVSS”, the “polyreactivity (PSR sort gate)” value is listed as “high polyreactivity”. In the case of “QVQLVESGGGLVQAGGSLRLTCAASGRILGYNDMGWYRHAPGKERELVPTSSGTSTYYADSVKGRFTISRDNAKNTVYLQMNSLKPEVTAVYYCNTDYVITLPAYDYWGQGTQVTVSS”, the “polyreactivity (PSR sort gate)” value is listed as “low polyreactivity”.
